Assay results reported in PMC3526858 (Biochemical Journal, 2012).

How the values were obtained:
[1] = target: EssB-N, N-terminal cytoplasmic fragment of EssB (residues 12-226) (S. aureus subsp. aureus) (UniProt Q2G185); assay: native gel or EMSA
[2] = target: EssBΔC, EssB truncated by 43 C-terminal residues, detergent-solubilised (S. aureus subsp. aureus) (UniProt Q2G185); assay: SEC
native gel or EMSA = target: the molecule itself; assay: native gel or EMSA

Molecule: EssB-N, N-terminal cytoplasmic fragment of EssB (residues 12-226) (from UniProt Q2G185 12-226) (domain or fragment)
- stoichiometry N [1]: 2

Molecule: EssBΔC, EssB truncated by 43 C-terminal residues, detergent-solubilised (from UniProt Q2G185 1-400) (domain or fragment)
- stoichiometry N [2]: 2

B1: EssB-C, C-terminal fragment of EssB (residues 257-444) (domain or fragment, S. aureus subsp. aureus)
chain: GASERIEKGYQAFVKDDYTQVLNTYDDLDGKKLDKEALYIYAKSYIQTNKQGLEKDKKENLLNNVTPNSNKDYLLYWMELGQGHLDEAINIATYLDDNDITKLALINKLNEIKNNGDLSNDKRSEETKKYNDKLQDILDKEKQVKDEKAKSEEEKAKAKDEKLKQQEENEKKQKEQAQKDKEKRQEAERKK
- stoichiometry N (native gel or EMSA): 2

B2: Full-length EssB (S. aureus), detergent-solubilised (natural protein, S. aureus subsp. aureus)
chain: GASMVKNHNPKNEMQDMLTPLDAEEAAKTKLRLDMREIPKSSIKPEHFHLMYLLEQHSPYFIDAELTELRDSFQIHYDINDNHTPFDNIKSFTKNEKLRYLLNIKNLEEVNRTRYTFVLAPDELFFTRDGLPIAKTRGLQNVVDPLPVSEAEFLTRYKALVICAFNEKQSFDALVEGNLELHKGTPFETKVIEAATLDLLTAFLDEQYQKQEQDYSQNYAYVRKVGHTVFKWVAIGMTTLSVLLIAFLAFLYFSVMKHNERIEKGYQAFVKDDYTQVLNTYDDLDGKKLDKEALYIYAKSYIQTNKQGLEKDKKENLLNNVTPNSNKDYLLYWMELGQGHLDEAINIATYLDDNDITKLALINKLNEIKNNGDLSNDKRSEETKKYNDKLQDILDKEKQVKDEKAKSEEEKAKAKDEKLKQQEENEKKQKEQAQKDKEKRQEAERKK
- stoichiometry N (native gel or EMSA): 2
